Assay results: patent US20060286066A1 (published 2006)
Where a chain is given by its changes, count along the chain named. One block for each binder: values may come before it.

Experiments:
[1] = target: p55 TNF-α receptor on MRC-5 cells (human) (UniProt P19438); experiment: cell-based or functional assay
[2] = target: T1, TNF receptor 1 Fc fusion protein (R&D Systems) (human, UniProt P19438 30-211, limits assumed); experiment: DOM1 receptor binding assay (RBA): dAb titrated against TNF binding to TNF receptor 1
T1 construct: also called recombinant TNF receptor 1 (p55); not shown: Fc part of the bought fusion protein, captured by an anti-human Fc antibody
T1 sequence (looked up): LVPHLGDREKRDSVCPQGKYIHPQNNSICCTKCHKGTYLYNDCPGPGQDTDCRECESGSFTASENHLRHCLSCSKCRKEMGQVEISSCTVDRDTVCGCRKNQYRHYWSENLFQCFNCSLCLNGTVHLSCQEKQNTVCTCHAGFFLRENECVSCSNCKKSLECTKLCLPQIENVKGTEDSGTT
Procedure: Assays for the measurement of receptor binding by a ligand, e.g., a cytokine, are known in the art. […] Briefly, Maxisorp plates are incubated overnight with […] anti-human Fc mouse monoclonal antibody (Zymed, San Francisco, USA). […] The plate is washed to remove any unbound protein before the detection step. […] The reaction is stopped by the addition of HCl and the absorbance is read at 450 nm.

Biotinylated human TNFRI [3] = target: T2, Biotinylated human TNFRI (human, UniProt P19438 30-211, limits assumed, biotinylated (approx 1 biotin per molecule)); experiment: SPR (Biacore), biotinylated human TNFRI on streptavidin chip, dAb injected
T2 sequence (looked up): T1 sequence (looked up)
From the text: (§1) The effect of PEGylation on the binding affinity of TAR2-10-27 for its antigen was investigated using Biacore. All the PEGylated formats were generated using TAR2-10-27cys (see Example 2). The following methodology was used to determine the on and off rates of each PEGylated dAb format for the antigen. Biotinylated human TNFRI (approx 1 biotin per molecule) was coated onto a single flow cell of a Biacore streptavidin sensor chip at a density of approximately 400 RU. A concentration series of each dAb or PEGylated dAb (2.6 μM, 770 nM, 260 nM, 77 nM and 2.6 nM) was sequentially injected (45 μl injection at a flow rate of 30 μl/min) over both the TNFRI coated flow cell and an uncoated flow cell (streptavidin), (a subtractive curve was generated by subtracting the uncoated flow cell curve from the TNFRI flow cell curve). The off-rate was analysed for five minutes after the injection of each sample after which the surface was regenerated by injection of 10 mM glycine pH 3.
(§2) Data generated from the Biacore was fitted using the curve fitting software (Biaevaluation 3.2) and the association constant (kₐ) and dissociation constant (kd) determined (Table 8).

Biotinylated human TNFRI [4] = target: T2, Biotinylated human TNFRI; experiment: SPR (Biacore), biotinylated human TNFRI on streptavidin chip, dAb injected; KD from mean kd/ka
From the text: as §1, §2

[5] = target: T1, TNF receptor 1 Fc fusion protein (R&D …); experiment: TNF receptor binding assay: dAb titrated against TNF binding to TNF receptor 1
hen egg white lysozyme = hen egg white lysozyme (hen, UniProt P00698 19-147); experiment: batch binding to lysozyme-Sepharose affinity resin, SDS-PAGE read-out
Sequence of hen egg white lysozyme (P00698 19-147 limits assumed): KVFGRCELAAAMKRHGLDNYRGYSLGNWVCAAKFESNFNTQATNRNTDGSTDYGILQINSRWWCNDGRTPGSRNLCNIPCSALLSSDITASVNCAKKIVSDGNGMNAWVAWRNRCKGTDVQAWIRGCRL
Procedure: A HEL4 affinity based resin (based on the antigen, hen egg white lysozyme) was produced to test the functionality of the PEGylated dAb. Lysozyme was coupled to NETS activated Sepharose 4B resin (Amersham Pharmacia) following the manufacturer's instructions. The PEGylated samples (5 μg) were then mixed with the affinity resin (100 μl) and allowed to bind in PBS at room temperature for 30 mins. The resin was then extensively washed with PBS (3×1 ml) to remove unbound protein. The affinity resin was then run on a SDS-PAGE to determine if the PEGylated HEL4 had bound to the matrix (see Section 8.3).

Sequence of p55 TNF-α receptor on MRC-5 cells (human) (P19438 30-455): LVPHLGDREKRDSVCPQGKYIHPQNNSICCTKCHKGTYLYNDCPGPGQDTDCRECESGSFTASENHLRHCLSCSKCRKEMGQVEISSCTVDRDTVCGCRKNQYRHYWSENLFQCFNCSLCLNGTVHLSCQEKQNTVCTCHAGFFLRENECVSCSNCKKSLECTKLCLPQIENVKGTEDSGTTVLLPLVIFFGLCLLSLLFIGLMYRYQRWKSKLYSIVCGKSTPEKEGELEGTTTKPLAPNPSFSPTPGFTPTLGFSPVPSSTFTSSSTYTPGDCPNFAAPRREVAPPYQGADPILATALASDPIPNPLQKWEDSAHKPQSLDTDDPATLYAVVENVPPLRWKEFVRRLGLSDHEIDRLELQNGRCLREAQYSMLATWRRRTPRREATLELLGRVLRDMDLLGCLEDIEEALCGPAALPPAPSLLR

B1: TAR2-10-27 Asp62cys blocked (other)
VH: ASTEVQLLESGGGLVQPGGSLRLSCAASGFTFEWYWMGWVRQAPGKGLEWVSAISGSGGSTYYACSVKGRFTISRDNSKNTLYLQMNSLRAEDAAVYYCAKVKLGGGPNFGYRGQGTLVTVSS
modifications: Cys62 blocked with N-ethylmaleimide
notes: For numbering and entry offset see m28
MRC5 cell assay ND 50 [1]: 430 nM | IC50 [2]: 15 nM

B2: TAR2-10-27 Asp62cys 30K MAL PEG (protein)
VH: B1 VH
modifications: 30K MAL-PEG on Cys62
MRC5 cell assay ND 50 [1]: 1000 nM

B3: TAR2-10-27 Gln13cys blocked (other)
VH: B1 VH with Q16C, C65D
modifications: Cys13 blocked with N-ethylmaleimide
notes: as for B1
MRC5 cell assay ND 50 [1]: 30 nM | IC50 [2]: 2 nM

B4: TAR2-10-27 Gln112cys 30K MAL PEG (other)
VH: B1 VH with C65D, Q115C
modifications: 30K MAL-PEG on Cys112
notes: as for B1
MRC5 cell assay ND 50 [1]: 650 nM | IC50 [2]: 15 nM

B5: TAR2-10-27 Gln13cys 30K MAL PEG (other)
VH: B1 VH with Q16C, C65D
modifications: 30K MAL-PEG on Cys13
notes: as for B1
MRC5 cell assay ND 50 [1]: 200 nM | IC50 [2]: 8 nM

B14: TAR2-10-27 Glu89cys 30K MAL PEG (other)
VH: B1 VH with C65D, E92C
modifications: 30K MAL-PEG on Cys89
notes: as for B1
MRC5 cell assay ND 50 [1]: 100 nM | IC50 [2]: 20 nM

B16: TAR2-10-27 Glu89cys blocked (other)
VH: B1 VH with C65D, E92C
modifications: Cys89 blocked with N-ethylmaleimide
notes: as for B1
MRC5 cell assay ND 50 [1]: 70 nM | IC50 [2]: 3 nM

B17: TAR2-10-27 Gln112cys blocked (other)
VH: B1 VH with C65D, Q115C
modifications: Cys112 blocked with N-ethylmaleimide
notes: as for B1
MRC5 cell assay ND 50 [1]: 15 nM | IC50 [2]: 2 nM

B18: TAR2-10-27 Leu115cys 30K MAL PEG (other)
VH: B1 VH with C65D, L118C
modifications: 30K MAL-PEG on Cys115
notes: as for B1
MRC5 cell assay ND 50 [1]: 300 nM | IC50 [2]: 10 nM

Now from value to binder:

koff (Biotinylated human TNFRI [3]): 0.00954 s⁻¹ | kon (Biotinylated human TNFRI [3]): 120000 M⁻¹ s⁻¹ | Kd (Biotinylated human TNFRI [4]): 79.5 nM
B6: TAR210-27 2 × 10K MAL PEG (other)
VH: B1 VH with C65D, S123C
modifications: 2 × 10K MAL-PEG on the C-terminal Cys (Ser120cys)
notes: For the limits of the entry see m36

koff (Biotinylated human TNFRI [3]): 0.00769 s⁻¹ | kon (Biotinylated human TNFRI [3]): 83400 M⁻¹ s⁻¹ | MRC5 cell assay ND 50 [1]: 600 nM | Kd (Biotinylated human TNFRI [4]): 92.2 nM | IC50 [2]: 10 nM
B7: TAR2-10-27 Ser120cys 30K MAL PEG (other)
VH: B1 VH with C65D, S123C
modifications: 30K MAL-PEG on the C-terminal Cys (Ser120cys)
notes: TAR2-10-27 cys; For the limits of the entry see m36; also called TAR210-27 30K MAL PEG

koff (Biotinylated human TNFRI [3]): 0.00596 s⁻¹ | kon (Biotinylated human TNFRI [3]): 577000 M⁻¹ s⁻¹ | MRC5 cell assay ND 50 [1]: 30 nM | Kd (Biotinylated human TNFRI [4]): 10.3 nM | IC50 [2]: 3 nM
B8: TAR2-10-27 Ser120cys blocked (other)
VH: B1 VH with C65D, S123C
modifications: C-terminal Cys (Ser120cys) blocked with N-ethylmaleimide
notes: TAR2-10-27 cys; the entry already carries Ser120cys

koff (Biotinylated human TNFRI [3]): 0.00517 s⁻¹ | kon (Biotinylated human TNFRI [3]): 74700 M⁻¹ s⁻¹ | IC50 [5]: ~20 nM | Kd (Biotinylated human TNFRI [4]): 69.2 nM
B9: TAR210-27 2 × 20K MAL PEG (other)
VH: B1 VH with C65D, S123C
modifications: 2 × 20K (40K branched) MAL-PEG on the C-terminal Cys (Ser120cys)
notes: For the limits of the entry see m36; also called 40K PEGylated monomer (TAR2-10-27)

koff (Biotinylated human TNFRI [3]): 0.012 s⁻¹ | kon (Biotinylated human TNFRI [3]): 79900 M⁻¹ s⁻¹ | Kd (Biotinylated human TNFRI [4]): 150 nM
B10: TAR210-27 20K MAL PEG (other)
VH: B1 VH with C65D, S123C
modifications: 20K MAL-PEG on the C-terminal Cys (Ser120cys)
notes: as for B6

MRC5 cell assay ND 50 [1]: 45 nM | IC50 [2]: 1 nM
B11: TAR2-10-27 Pro41cys blocked (other)
VH: B1 VH with P44C, C65D
modifications: Cys41 blocked with N-ethylmaleimide
notes: as for B1

koff (Biotinylated human TNFRI [3]): 0.011 s⁻¹ | kon (Biotinylated human TNFRI [3]): 90000 M⁻¹ s⁻¹ | Kd (Biotinylated human TNFRI [4]): 122 nM
B12: TAR210-27 5K MAL PEG (other)
VH: B1 VH with C65D, S123C
modifications: 5K MAL-PEG on the C-terminal Cys (Ser120cys)
notes: as for B6

MRC5 cell assay ND 50 [1]: 30 nM | IC50 [2]: 3 nM
B13: TAR2-10-27 Leu115cys blocked (other)
VH: B1 VH with C65D, L118C
modifications: Cys115 blocked with N-ethylmaleimide
notes: as for B1

MRC5 cell assay ND 50 [1]: 30 nM | IC50 [2]: 3 nM
B15: TAR2-10-27 Thr117cys blocked (other)
VH: B1 VH with C65D, T120C
modifications: Cys117 blocked with N-ethylmaleimide
notes: as for B1

MRC5 cell assay ND 50 [1]: 700 nM | IC50 [2]: 8 nM
B19: TAR2-10-27 Thr117cys 30K MAL PEG (other)
VH: B1 VH with C65D, T120C
modifications: 30K MAL-PEG on Cys117
notes: as for B1

MRC5 cell assay ND 50 [1]: 200 nM | IC50 [2]: 8 nM
B20: TAR2-10-27 Pro41cys 30K MAL PEG (other)
VH: B1 VH with P44C, C65D
modifications: 30K MAL-PEG on Cys41
notes: as for B1

binding result (hen egg white lysozyme): binds
B21: HEL4 PEGylated with SPA-PEG (other)
VH: EVQLLESGGGLVQPGGSLRLSCAASGFRISDEDMGWVRQAPGKGLEWVSSIYGPSGSTYYADSVKGRFTISRDNSKNTLYLQMNSLRAEDTAVYYCASALEPLSEPLGFWGQGTLVTVSS
modifications: SPA-PEG on surface lysine residues (sites not given)
notes: also called PEGylated HEL4

binding result (hen egg white lysozyme): binds
B22: HEL4 PEGylated with NHS-PEG (other)
VH: B21 VH
modifications: NHS-PEG on surface lysine residues (sites not given)
notes: also called PEGylated HEL4; HEL4 40K PEG-NHS
